Experimental findings from article doi:10.1101/2024.01.05.574328 are described below.

The target of the assay is AcrIF25 (A. baumannii). Put plainly: cross-linking.

As for AcrIF25 (natural protein), the stoichiometry N came out at 2.
